Square brackets hold non-standard residues; d marks the D form. Peptide text beside a SMILES is read from it. * marks the point of attachment. Sta = CC(C)C[C@H](N)[C@@H](O)CC(=O)O; Isovaleryl = CC(C)CC(=O)*
How the values were obtained:
[1] = system: Nepenthes enzymes; assay: enzyme inhibition testing, BSA digestion by Nepenthes enzymes, SDS-PAGE; format: biochemical; details: BSA 1 mg/ml, 0.12 μM Nepenthes enzymes, 15 min at 37° C.; inhibitors at 1 mM
Method: Inhibitors: PMSF (phenylmethylsulfonyl fluoride), P (pepstatin), L (leupeptin), E (EDTA and EGTA), DTT (dithiothreitol), ZPP (Z-Pro-Pro-aldehyde-dimethyl acetal). All inhibitor concentrations at 1 mM except where noted. Extract: fluid protein extract, M: lane markers. For enzyme inhibition testing, bovine serum albumin (1 mg/ml) was digested with 0.12 μM Nepenthes enzymes for 15 min at 37° C., quenched by brief boiling and then analyzed by 10% SDS-PAGE. The enzymes were pretreated with controls and inhibitors at 4° C. for 2 days prior to digestion experiments. PMSF, pepstatin, leupeptin, EDTA, EGTA, DTT from Sigma-Aldrich, and ZPP (Z-Pro-Pro-aldehyde-dimethyl acetal) from Bachem.

[2] = system: protein standards; assay: cleavage preferences on protein standards, LC-MS/MS; format: biochemical
Method: C-terminal cleavage preferences (P1 position) as a function of storage time at elevated temperature. Fluid concentrate was incubated at 37° C. for 0-7 days. […] Data were collected from 2-minute in-solution digestions of protein standards at 37° C. (pH 2.5), and cleavage preferences were determined using LC-MS/MS methods. For each amino acid, cleavage preferences were estimated by calculating the number observed terminal residues relative to the total number of residues, in percent.
Data were generated and collected as described for FIG. 1A.
Data are shown as relative % cleavage to the total, as defined above, using LC-MS/MS data from a set of protein standards. Samples were digested in solution for 5 minutes at 37° C. in this comparison, for all three enzyme preparations.
Data are provided as described for FIG. 1C.
Data was generated using HCD fragmentation on an LC-Orbitrap Velos instrument, and data searched against the sequence of APLF in Mass Spec Studio assuming no enzyme specificity, and results were cut off at a peptide false discovery rate (FDR) of 0.5%. Figure discloses SEQ ID NO: 87.

[3] = system: NOD DQ8 mice; assay: transgenic NOD/HLA-DQ8 mouse model of gliadin sensitivity
[4] = system: crude gliadin; assay: SDS-PAGE and proteomic LC-MS/MS analysis of crude gliadin digests; format: biochemical, Triticum aestivum; details: crude gliadin slurry digested with purified neprosin alone
Method: Digestions at pH 2.5 and 37° C., for 90 min. All concentrations in μM. M: Molecular weight markers, and gliadin: total crude gliadin in the absence of protease. […] Peptide data from LC-MS/MS runs, with intensities obtained using Protein Deconvolution 1.0. […] A stock gliadin slurry of 20-50 mg/ml was prepared in acidic solution (100 mM glycine HCl, pH 2.5) and briefly sonicated to further break up large particulates and promote suspension. Digestions of 10 mg/mL gliadin slurries were initiated by addition of enzyme (pepsin, fluid enzymes or both) and held at 37° C. with gentle rotation. Digest progress was monitored by gravimetric analysis, optical transmission, SDS-PAGE and mass spectrometry. For gravimetric analysis, digests were quenched by boiling and treated with TCA/chloroform, followed by centrifugation to recover undigested or poorly digested protein. For monitoring with optical transmission, digestion reactions were conducted in 96-well plate with ≥3 replicates of each reaction condition, and turbidity monitored at 595 nm at 37° C. every 2 minutes, for 90 minutes (SpectraMax plate reader, Molecular Devices). The plate was shaken at medium speed briefly between measurements. The digests were quenched after 90 min reaction by boiling for 10 minutes (confirmed to have no impact on digestion profile, a posteriori). An aliquot of the reaction mixture was analyzed on an 8% SDS-PAGE gel. The remaining amount was centrifuged and the supernatant was analyzed by mass spectrometry. Supernatant was analyzed by data-dependent LC-MS/MS, in two 1-hour reversed phase gradient runs, configured for top-10 ion selection using CID in a high/low configuration. In one run, ion selection was restricted to 2+ and higher charge states. In the other run, ion selection was applied to 1+ charge states only. Data from both runs were combined and searched against all UniprotKB/Swiss-Prot entries for gliadin and glutenin from Triticum aestivum (25 proteins), using Mascot v2.3, configured for non-specific digestions and filtered for peptide hits with p<0.05. For estimation of peptide size distribution, all LC-MS spectra were combined and deconvoluted in Protein Deconvolution v1.0, with appropriate settings. For label-free quantitative analysis using the subset of the digest identified in the database search, the hit list was combined with the raw data in Mass Spec Studio and used to generate a set of peptide ion chromatograms, integrated over all isotopes to determine a weight-average intensity for each peptide sequence identified.

Molecule	suppression of enzyme activity by proteolytic inhibitors [1]	C-terminal (P1) cleavage specificity [2]	small intestinal CD3+ intraepithelial lymphocyte (IEL) counts ([3]; gliadin codigested with pepsin 100:1 and fluid enzyme 264:1 or nepenthesin II 100:1, pepsin alone is positive control)	tolerability ([3]; sensitized mice challenged three times per week for three weeks with 5 mg treated gliadin)	weighted average peptide length for the low molecular weight fraction [4]
CC(C)CC(=O)N[C@H](C(=O)N[C@H](C(=O)N[C@@H](CC(C)C)[C@@H](O)CC(=O)N[C@@H](C)C(=O)N[C@@H](CC(C)C)[C@@H](O)CC(=O)O)C(C)C)C(C)C [Pepstatin, pepstatin] (Isovaleryl-VV[Sta]A[Sta]-OH)	could only partially suppress enzyme activity				
recombinant nepenthesin I: recombinant aspartic protease of Nepenthes, SEQ ID NO.: 21 (protein) NGPSGVETSVYAGDGEYLMNLSIGTPAQPFSAIMDTGSDLIWTQCQPCTQCFNQSTPIFNPQGSSSFSTLPCSSQLCQALSSPTCSNNFCQYTYGYGDGSETQGSMGTETLTFGSVSIPNITFGCGENNQGFGQGNGAGLVGMGRGPLSLPSQLDVTKFSYCMTPIGSSTPSNLLLGSLANSVTAGSPNTTLIQSSQIPTFYYITLNGLSVGSTRLPIDPSAFALNSNNGTGGIIIDSGTTLTYFVNNAYQSVRQEFISQINLPVVNGSSSGFDLCFQTPSDPSNLQIPTFVMHFDGGDLELPSENYFISPSNGLICLAMGSSSQGMSIFGNIQQQNMLVVYDTGNSVVSFASAQCGAS		absence of C-terminal proline (P) cleavage			
recombinant nepenthesin II: recombinant aspartic protease of Nepenthes, SEQ ID NO.: 20 (protein) QSSSGIETPVYAGDGEYLMNVAIGTPDSSFSAIMDTGSDLIWTQCEPCTQCFSQPTPIFNPQDSSSFSTLPCESQYCQDLPSETCNNNECQYTYGYGDGSTTQGYMATETFTFETSSVPNIAFGCGEDNQGFGQGNGAGLIGMGWGPLSLPSQLGVGQFSYCMTSYGSSSPSTLALGSAASGVPEGSPSTTLIHSSLNPTYYYITLQGITVGGDNLGIPSSTFQLQDDGTGGMIIDSGTTLTYLPQDAYNAVAQAFTDQINLPTVDESSSGLSTCFQQPSDGSTVQVPEISMQFDGGVLNLGEQNILISPAEGVICLAMGSSSQLGISIFGNIQQQETQVLYDLQNLAVSFVPTQCGAS		absence of C-terminal proline (P) cleavage	significant reductions in IEL counts, to levels indistinguishable from the gliadin-free diet control	well tolerated	
neprosin: 29 kDa prolyl endoprotease isolated from Nepenthes pitcher fluid (fraction 2), SEQ ID NO.: 1 (protein) MQAKFFTFVILSSVFYFNYPLAEARSIQARLANKPKGTIKTIKGDDGEVVDCVDIYKQPAFDHPLLKNHTLQMQPSSYASKVGEYNKLEQPWHKNGECPKGSIPIRRQVITGLPVVKKQFPNLKFAPPSANTNHQYAVIAYFYGNASLQGANATINIWEPNLKNPNGDFSLTQIWISAGSGSSLNTIEAGWQVYPGRTGDSQPRFFIYWTADGYTSTGCYDLTCPGFVQTNNYYAIGMALQPSVYGGQQYELNESIQRDPATGNWWLYLWGTVVGYWPASIYNSITNGADTVEWGGEIYDSSGTGGFHTTTQMGSGHFPTEGYGKASYVRDLQCVDTYGNVISPTANSFQGIAPAPNCYNYQFQQGSSELYLFYGGPGCQ		dominant Pro-X cleavage specificity			12.5

Reference: patent US10857214B2, “Compositions and methods for treating gluten intolerance and disorders arising therefrom” (Codexis, Inc., priority 2015, dated 2020)
